Assay results from IntAct's records for PubMed 12679340.

Target: otc_yeast ARG3 (UniProt P05150)
Sequence (P05150 whole entry): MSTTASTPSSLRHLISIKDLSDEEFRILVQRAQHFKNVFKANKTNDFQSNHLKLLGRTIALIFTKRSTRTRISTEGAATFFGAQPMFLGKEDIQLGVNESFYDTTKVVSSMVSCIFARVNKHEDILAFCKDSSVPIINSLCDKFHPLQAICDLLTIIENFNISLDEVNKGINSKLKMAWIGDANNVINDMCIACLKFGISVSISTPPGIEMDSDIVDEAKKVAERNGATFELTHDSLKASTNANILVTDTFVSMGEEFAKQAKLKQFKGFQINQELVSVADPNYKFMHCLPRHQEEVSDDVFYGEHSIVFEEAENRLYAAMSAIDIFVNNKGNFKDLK

Arginase (Saccharomyces cerevisiae), P00812 C321R;C326T, sequence (P00812 whole entry C321R/C326T): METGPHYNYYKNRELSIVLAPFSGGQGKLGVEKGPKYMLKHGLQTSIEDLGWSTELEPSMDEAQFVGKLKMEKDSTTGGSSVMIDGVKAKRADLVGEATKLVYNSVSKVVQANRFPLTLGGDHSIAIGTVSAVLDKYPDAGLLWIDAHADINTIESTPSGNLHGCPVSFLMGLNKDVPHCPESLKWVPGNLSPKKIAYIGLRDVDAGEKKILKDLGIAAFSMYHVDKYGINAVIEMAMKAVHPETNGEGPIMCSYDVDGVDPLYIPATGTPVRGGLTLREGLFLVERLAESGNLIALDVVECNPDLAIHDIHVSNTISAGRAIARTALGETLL

In the case of “Arginase (Saccharomyces cerevisiae), P00812 C321R;C326T”, the “effect of a mutation on the interaction” value is reported as “decreasing interaction”.
